B1: 20E6_H0.2aL1_hIgG1 (antibody)
heavy: not shown
light: DIQMTQSPSSLSASVGDRVTITCRASQDITNYLNWYQQKPGKAVKLLIYYTSRLHSGVPSRFSGSGSGTDYTLTISSLQPEDFATYFCQQGDTLPWTFGQGTKLEIKRTVAAPSVFIFPPSDEQLKSGTASVVCLLNNFYPREAKVQWKVDNALQSGNSQESVTEQDSKDSTYSLSSTLTLSKADYEKHKVYACEVTHQGLSSPVTKSFNRGEC
notes: also called 20E6_H0.2aL1_IgG1; humanized 20E6
B2: 22F9_hIgG1 (antibody, V domains shown)
VH: QVQLQQPGAELVKPGASVKLSCKASGYTFTSYWMHWVKQRPGQGLEWIGMIHPNSGSTNYNEKFKSKATLTVDKSSSTAYMQLSSLTSEDSAVYYCAYYDYDGFFDVWGTGTTVTVSS
VL: DIVLTQSPASLDVSLGQRATISCRASKSVSTSGYSYMHWYQQKSGQPPKLLIYLASNLESGVPARFSGSGSGTHFTLNIHPVEEEDAATYYCQHSRELPYTFGGGTKLEIK

What was measured:
[1] = target: T1, fusion protein of a human IgG1 Fc domain and human LAP-TGFβ1 (human, UniProt P01137 30-390); assay: BLI, 2:1 model, component 1
T1 construct: printed both as Fc-huB1 and LAP-TGFβ-Fc; also called Fc-huB1; Fc-human LAP
Experimental: (§1) A streptavidin-functionalized tip was equilibrated in binding buffer (10 mM sodium phosphate, 150 mM sodium chloride, 1% (w/v) bovine serum albumin, 0.05% (w/v) sodium azide, pH 7.4) and dipped in a 5 μg/mL solution of biotinylated antibody (i.e., 20E6_H0.2aL1_hIgG1, murine 16F4, or MHG8, a GARP-specific murine IgG2a described in Lienart et al. Science 2018; 362:952-956) in binding buffer for 30 seconds to load the tip with antibody. The antibody-loaded tip was then washed in binding buffer and placed in a solution containing 0-24 nM of a fusion protein containing a human IgG1 Fc domain fused to either human LAP-TGFβ1, the soluble GARP-LAP-TGFβ1 complex, or the soluble ECR3E-LAP-TGFβ1 complex. The antigen was allowed to bind to antibody for 5 minutes (association phase), and then the tip was moved to binding buffer (dissociation phase). The binding and dissociation data for 16F4 and MHG8 were well-fit by a 1:1 binding model. The association and dissociation phases for 20E6_H0.2aL1_hIgG1 antibody were fit to a 2:1 heterogenous ligand binding model to determine the binding rate constants.
As shown in FIG. 24 and Table 21, the 20E6_H0.2aL1_hIgG1 antibody bound to free LAP-TGFβ1 and the soluble GARP-LAP-TGFβ1 complex with nanomolar affinity, but not to the ECR3E-LAP-TGFβ1 complex. As expected, the anti-GARP antibody (MHG8) bound to the GARP-LAP-TGFβ1 complex, but not to free LAP-TGFβ1 or the ECR3E-LAP-TGFβ1 complex. 16F4 bound tightly to all three constructs.

[2] = target: T2, soluble complex of the ECR3E fragment of human LTBP1 and human LAP-TGFβ1 (human, UniProt Q14766 1286-1466, limits assumed); assay: bio-layer interferometry, biotinylated antibody on streptavidin tip
T2 construct: domain: third cysteine-rich domain of human LTBP1, flanked by EGFR-like domains; also called ECR3E-LAP-TGFβ1; ECR3E-LAP
Experimental: as §1
As shown in FIG. 24 and Table 21, the 20E6_H0.2aL1_hIgG1 antibody bound to free LAP-TGFβ1 and the soluble GARP-LAP-TGFβ1 complex with nanomolar affinity, but not to the ECR3E-LAP-TGFβ1 complex. […]

[3] = target: T3, fusion protein of a human IgG1 Fc domain and rat LAP-TGFβ1 (human; rat, UniProt P17246 30-390, limits assumed); assay: BLI, 2:1 model, component 2
T3 construct: also called rat LAP-TGFβ-Fc
Experimental: (§2) The 20E6_H0.2aL1_IgG1 antibody was biotinylated using EZ-Link SulfoNHS-LC-Biotin (ThermoFisher). A streptavidin-functionalized tip was equilibrated in binding buffer (10 mM sodium phosphate, 150 mM sodium chloride, 1% (w/v) bovine serum albumin, 0.05% (w/v) sodium azide, pH 7.4) and dipped in a 10 μg/mL solution of biotinylated anti-LAP in binding buffer for 30 seconds to load the tip with antibody. The antibody-loaded tip was then washed in binding buffer and placed in a solution containing 0-24 nM of a fusion protein having a human IgG1 Fc domain fused to either human LAP-TGFβ1, human LAP-TGFβ2 or human LAP-TGFβ3. The antigen was allowed to bind to antibody for 5 minutes (association phase), and then the tip was moved to binding buffer (dissociation phase). The association and dissociation phases were fit to a 2:1 heterogenous ligand binding model to determine the binding rate constants. As shown in FIG. 21A and Table 17, 20E6_H0.2aL1_IgG1 bound with sub-nanomolar affinity to human LAP-TGFβ1, but not to human LAP-TGFβ2 (FIG. 21B) or LAP-TGFβ3 (FIG. 21C).
(§3) The binding of 20E6_H0.2aL1_IgG1 antibody and 20E6_H0.2aL1_hIgG4mut antibody to LAP-TGFβ1 of various species was examined by bio-layer interferometry using the method described in Example 12, except that the antibody-loaded tip was placed in a solution containing 0-24 nM of a fusion protein having a human IgG1 Fc domain fused to either mouse, rat, cynomolgus monkey, or human LAP-TGFβ1.

[4] = target: T4, fusion protein of a human IgG1 Fc domain and mouse LAP-TGFβ1 (human; mouse, UniProt P04202 30-390); assay: BLI, 2:1 model, component 2
T4 construct: also called mouse LAP-TGFβ-Fc
Experimental: as §2, §3

[5] = target: T1, fusion protein of a human IgG1 Fc …; assay: BLI, 2:1 model, component 2
Experimental: as §2, §3

[6] = target: T5, fusion protein of a human IgG1 Fc domain and cynomolgus monkey LAP-TGFβ1 (human; cynomolgus monkey); assay: BLI, 2:1 model, component 2
T5 construct: also called cynomolgus monkey LAP-TGFβ-Fc
Experimental: as §2, §3

[7] = target: T1, fusion protein of a human IgG1 Fc …; assay: BLI, antibody on tip, 1:1 model
Experimental: (§4) Binding to human TGFβ1 of a subset of candidates was also tested by bio-layer interferometry (Octet). A streptavidin coated tip was equilibrated for 60 seconds in binding buffer (10 mM sodium phosphate, 150 mM sodium chloride, 1% bovine serum albumin, 0.05% sodium azide). The tip was then dipped in 10 μg/mL biotinylated antibody in binding buffer. After 15 seconds, the tip was washed in binding buffer for 60 seconds, and then dipped in 0-24 nM Fc-human LAP. Analyte association was measured for 5 minutes. The tip was transferred to binding buffer alone, and analyte dissociation was measured for 5 minutes. The association and dissociation data were fit to a 1:1 binding model.

[8] = target: T1, fusion protein of a human IgG1 Fc …; assay: BLI, signal change on binding
Experimental: as §4

T4 sequence (P04202 30-390 limits assumed): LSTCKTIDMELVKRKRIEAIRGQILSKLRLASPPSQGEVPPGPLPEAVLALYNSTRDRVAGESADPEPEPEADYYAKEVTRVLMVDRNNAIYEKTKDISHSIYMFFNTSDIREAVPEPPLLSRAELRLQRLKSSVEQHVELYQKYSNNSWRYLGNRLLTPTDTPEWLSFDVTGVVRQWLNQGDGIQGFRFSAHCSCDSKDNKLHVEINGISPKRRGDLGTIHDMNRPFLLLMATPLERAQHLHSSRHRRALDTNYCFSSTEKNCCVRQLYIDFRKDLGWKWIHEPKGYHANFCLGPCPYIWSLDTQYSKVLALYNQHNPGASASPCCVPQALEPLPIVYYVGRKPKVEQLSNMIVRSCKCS
T3 sequence (P17246 30-390 limits assumed): as the sequence (P04202 30-390 limits assumed) above, with E93D, S99T, L131F, S134T, K202V counted along it
T1 sequence (P01137 30-390 limits assumed): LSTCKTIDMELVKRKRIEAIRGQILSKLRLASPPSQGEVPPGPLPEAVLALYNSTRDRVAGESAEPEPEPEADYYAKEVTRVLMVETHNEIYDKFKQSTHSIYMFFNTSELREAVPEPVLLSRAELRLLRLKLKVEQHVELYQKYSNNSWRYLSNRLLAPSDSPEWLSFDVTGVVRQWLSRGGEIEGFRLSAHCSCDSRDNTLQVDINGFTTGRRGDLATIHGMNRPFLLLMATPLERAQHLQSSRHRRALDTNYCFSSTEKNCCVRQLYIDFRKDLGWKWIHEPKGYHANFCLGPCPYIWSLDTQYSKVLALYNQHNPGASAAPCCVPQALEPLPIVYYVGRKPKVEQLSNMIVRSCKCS
T2 sequence (chain, as listed by the source limits assumed, chain 1 of 2): as the sequence (P01137 30-390 limits assumed) above
T2 sequence (Q14766 1286-1466 limits assumed, chain 2 of 2): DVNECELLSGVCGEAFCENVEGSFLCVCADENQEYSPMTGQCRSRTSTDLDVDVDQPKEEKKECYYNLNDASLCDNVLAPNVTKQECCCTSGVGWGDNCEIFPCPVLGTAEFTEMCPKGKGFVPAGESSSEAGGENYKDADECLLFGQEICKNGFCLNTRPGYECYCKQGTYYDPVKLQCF

Binder | Kd [1] | koff [1] | kon [1] | binding result [2] | Kd [3] | koff [3] | kon [3] | Kd [4] | koff [4] | kon [4] | Kd [5] | koff [5] | kon [5] | Kd [6] | koff [6] | kon [6] | Kd [7] | koff [7] | kon [7] | Binding (nm) [8]
B1 | 16.2 nM | 0.0406 s⁻¹ | 2.51e+06 M⁻¹ s⁻¹ | no binding (tested: 24 nM) | 0.68 nM | 0.000768 s⁻¹ | 1.14e+06 M⁻¹ s⁻¹ | 0.56 nM | 0.00039 s⁻¹ | 700000 M⁻¹ s⁻¹ | 0.97 nM | 0.000657 s⁻¹ | 680000 M⁻¹ s⁻¹ | 0.71 nM | 0.000728 s⁻¹ | 1.03e+06 M⁻¹ s⁻¹ | – | – | – | –
B2 | – | – | – | – | – | – | – | – | – | – | – | – | – | – | – | – | 3.74 nM | 0.00168 s⁻¹ | 450000 M⁻¹ s⁻¹ | 0.27 nm

— US20220017612A1 (TILOS THERAPEUTICS, published 2022)
